Kd data for one molecule are collected here from US20220289850 (published 2022).

The target in this experiment is T1, cynomolgus integrin avb8 (cynomolgus).
T1 chain 1: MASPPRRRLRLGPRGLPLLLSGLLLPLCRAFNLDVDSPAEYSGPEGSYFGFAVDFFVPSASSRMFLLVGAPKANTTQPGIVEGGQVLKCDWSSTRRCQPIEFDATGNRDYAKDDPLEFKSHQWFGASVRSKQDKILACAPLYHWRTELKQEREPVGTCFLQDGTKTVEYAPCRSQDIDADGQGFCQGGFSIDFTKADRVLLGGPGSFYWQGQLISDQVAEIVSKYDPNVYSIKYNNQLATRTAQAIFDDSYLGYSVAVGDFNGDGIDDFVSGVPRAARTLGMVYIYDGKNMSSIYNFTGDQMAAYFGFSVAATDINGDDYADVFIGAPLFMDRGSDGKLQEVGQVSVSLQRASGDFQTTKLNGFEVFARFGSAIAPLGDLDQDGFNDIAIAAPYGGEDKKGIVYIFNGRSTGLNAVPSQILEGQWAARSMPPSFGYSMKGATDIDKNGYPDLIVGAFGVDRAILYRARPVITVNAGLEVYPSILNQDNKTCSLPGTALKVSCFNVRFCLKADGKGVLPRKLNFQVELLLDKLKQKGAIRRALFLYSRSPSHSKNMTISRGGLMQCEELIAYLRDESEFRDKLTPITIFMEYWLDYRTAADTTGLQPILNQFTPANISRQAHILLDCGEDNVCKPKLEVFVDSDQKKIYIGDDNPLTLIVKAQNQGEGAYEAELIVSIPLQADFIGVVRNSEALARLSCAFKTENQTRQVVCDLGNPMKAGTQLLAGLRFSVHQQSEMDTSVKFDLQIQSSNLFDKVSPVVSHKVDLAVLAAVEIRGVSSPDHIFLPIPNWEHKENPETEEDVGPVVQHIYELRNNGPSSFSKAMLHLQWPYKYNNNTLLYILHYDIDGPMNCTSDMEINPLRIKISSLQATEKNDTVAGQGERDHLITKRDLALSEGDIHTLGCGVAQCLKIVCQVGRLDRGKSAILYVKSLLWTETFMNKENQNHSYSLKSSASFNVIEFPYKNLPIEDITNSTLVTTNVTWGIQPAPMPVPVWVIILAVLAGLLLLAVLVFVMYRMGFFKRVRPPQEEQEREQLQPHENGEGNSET
T1 chain 2: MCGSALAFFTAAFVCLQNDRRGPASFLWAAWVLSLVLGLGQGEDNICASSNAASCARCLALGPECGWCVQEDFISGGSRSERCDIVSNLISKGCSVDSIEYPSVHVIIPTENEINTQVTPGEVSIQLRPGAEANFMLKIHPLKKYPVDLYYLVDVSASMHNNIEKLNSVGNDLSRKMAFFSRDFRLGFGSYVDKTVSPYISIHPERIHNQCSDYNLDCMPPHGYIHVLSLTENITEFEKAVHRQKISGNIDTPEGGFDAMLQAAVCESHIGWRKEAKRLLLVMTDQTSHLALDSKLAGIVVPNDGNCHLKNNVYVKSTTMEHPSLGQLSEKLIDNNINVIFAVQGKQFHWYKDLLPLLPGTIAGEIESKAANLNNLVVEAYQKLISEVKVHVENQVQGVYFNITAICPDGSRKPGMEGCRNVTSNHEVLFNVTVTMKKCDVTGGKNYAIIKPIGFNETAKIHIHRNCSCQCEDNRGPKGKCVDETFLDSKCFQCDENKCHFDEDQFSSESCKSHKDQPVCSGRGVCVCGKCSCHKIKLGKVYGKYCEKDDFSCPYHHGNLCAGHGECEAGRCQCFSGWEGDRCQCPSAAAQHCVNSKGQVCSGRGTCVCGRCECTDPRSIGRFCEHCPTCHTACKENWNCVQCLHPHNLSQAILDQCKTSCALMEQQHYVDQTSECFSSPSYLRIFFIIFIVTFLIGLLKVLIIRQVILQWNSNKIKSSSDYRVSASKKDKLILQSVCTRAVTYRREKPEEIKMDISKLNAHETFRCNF
Nature of the experiment: SPR.

B1: ADWA11 2.4 Fab (antibody, V domains shown)
VH: EVQLVESGGGLVQPGGSLRLSCAASGFNIKDYYMNWVRQAPGKGLEWVGWIDPDQGNTIYEPKFQGRFTISADTSKNSAYLQMNSLRAEDTAVYYCARRLLMDYWGQGTLVTVSS
VL: DIQMTQSPSSLSASVGDRVTITCRSTKSLSHFNGNTYLFWYQQKPGKAPKRLIYYMSSLASGVPSRFSGSGSGTDFTLTISSLQPEDFATYYCQQSLEYPFTFGGGTKVEIK
For orientation: Kd means a measure of binding affinity in units of concentration. Consider B1, for which the Kd was less than 0.1 nM.
